Experimental data published in patent publication US20230045791A1 (HIFIBIO, published 2023).

What was measured:
[1] = biological target: T1, mouse TNFR2 expressed on CHO cells (mouse, UniProt P25119 23-474); test: flow cytometry on CHO cells expressing mouse TNFR2
T1 construct: whole, on cells; also called mouse ortholog
T1 sequence (looked up): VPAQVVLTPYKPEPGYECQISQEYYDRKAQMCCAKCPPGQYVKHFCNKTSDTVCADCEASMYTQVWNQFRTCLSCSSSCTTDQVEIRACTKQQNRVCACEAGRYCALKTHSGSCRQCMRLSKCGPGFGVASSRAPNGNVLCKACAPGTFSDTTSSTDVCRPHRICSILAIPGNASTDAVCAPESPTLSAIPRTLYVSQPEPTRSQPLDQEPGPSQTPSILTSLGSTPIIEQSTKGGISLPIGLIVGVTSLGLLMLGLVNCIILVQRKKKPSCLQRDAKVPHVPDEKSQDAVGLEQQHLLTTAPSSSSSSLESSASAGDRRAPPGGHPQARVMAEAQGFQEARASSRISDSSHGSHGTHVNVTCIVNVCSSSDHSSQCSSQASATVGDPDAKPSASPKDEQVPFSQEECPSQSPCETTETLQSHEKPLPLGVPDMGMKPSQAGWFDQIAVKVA
Method: (§1) These monoclonal antibodies were then tested for their abilities to bind human and monkey TNFR2 expressed by CHO cells (CHO.hHFB3 and CHO.mkHFB3 cells respectively). Briefly, about 40,000 CHO.hHFB3 or CHO.mkHFB3 cells were seeded in tissue culture wells, and serial 1:3 dilutions of each test antibodies, with starting (highest) concentration of about 66 nM antibody, were added to each cell type and incubated for about an hour. Antibodies bound to the cells were detected by using 17 nM of anti-human Fc antibody labeled by AF647 (ALEXSA FLUOR® 647 fluorescent dye). An isotype matched negative control antibody was also used in this assay. The data, including EC₅₀ values and Eₘₐₓ for each antibody, were compiled in FIG. 2A.
The same experiments were also set up to test the ability of the test antibodies to bind CHO cells expressing mouse TNFR2 and the parental CHO cell lines (which may or may not express hamster TNFR2).

[2] = biological target: T2, His-tagged recombinant human TNFR1 (human, UniProt P19438 30-211, limits assumed); test: ELISA, plate coated with 0.1 µg/mL His-tagged recombinant human TNFR1
T2 construct: also called rhTNFR1; hTNFR1-His; not shown: His tag
T2 sequence (looked up): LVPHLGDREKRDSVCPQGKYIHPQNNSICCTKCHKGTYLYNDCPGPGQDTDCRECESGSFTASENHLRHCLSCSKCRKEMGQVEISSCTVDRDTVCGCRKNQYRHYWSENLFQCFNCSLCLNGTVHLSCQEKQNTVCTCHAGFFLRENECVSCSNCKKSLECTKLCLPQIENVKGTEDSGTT
Method: (§2) Briefly, tissue culture plates were coated with either 0.1 μg/mL of His-tagged recombinant human TNFR2 or TNFR1 overnight at 4° C. The coated plates were then incubated for about 1 hour on ice with 1:3 serial dilutions of each test antibodies, with starting (highest) concentration of about 66 nM antibody. Antibodies bound to the cells were detected by using 1:5000 dilution of HRP-labeled anti-human Fc antibody and TMB substrate. Isotype matched negative control antibody F3, as well as the MR2-1 positive control antibody specific for rhTNFR2 and a positive control antibody specific for rhTNFR1 were also used in this assay. The data, including EC₅₀ values for each antibody, were compiled in FIG. 4A.

[3] = biological target: T3, His-tagged recombinant human TNFR2 (human, UniProt P20333 23-257); test: ELISA, plate coated with 0.1 µg/mL His-tagged recombinant human TNFR2, HRP anti-human Fc
T3 construct: extracellular domain; also called rhTNFR2; hTNFR2-His; not shown: His tag
T3 sequence (looked up): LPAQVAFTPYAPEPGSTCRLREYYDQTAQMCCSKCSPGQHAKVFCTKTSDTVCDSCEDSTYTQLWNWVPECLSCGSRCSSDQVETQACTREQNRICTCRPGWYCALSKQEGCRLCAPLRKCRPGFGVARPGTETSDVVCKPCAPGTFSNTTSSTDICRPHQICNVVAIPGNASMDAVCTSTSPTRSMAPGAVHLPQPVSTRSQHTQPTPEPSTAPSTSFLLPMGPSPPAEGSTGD
Method: as §2

[4] = biological target: T4, human TNFR2 expressed on cells (CHO.hHFB3 / CHO.hTNFR2 cells; primary human T cells) (human, UniProt P20333 23-461); test: flow cytometry on CHO cells expressing human TNFR2 (CHO.hHFB3), anti-human Fc-AF647 detection
T4 construct: whole, on cells
T4 sequence (looked up): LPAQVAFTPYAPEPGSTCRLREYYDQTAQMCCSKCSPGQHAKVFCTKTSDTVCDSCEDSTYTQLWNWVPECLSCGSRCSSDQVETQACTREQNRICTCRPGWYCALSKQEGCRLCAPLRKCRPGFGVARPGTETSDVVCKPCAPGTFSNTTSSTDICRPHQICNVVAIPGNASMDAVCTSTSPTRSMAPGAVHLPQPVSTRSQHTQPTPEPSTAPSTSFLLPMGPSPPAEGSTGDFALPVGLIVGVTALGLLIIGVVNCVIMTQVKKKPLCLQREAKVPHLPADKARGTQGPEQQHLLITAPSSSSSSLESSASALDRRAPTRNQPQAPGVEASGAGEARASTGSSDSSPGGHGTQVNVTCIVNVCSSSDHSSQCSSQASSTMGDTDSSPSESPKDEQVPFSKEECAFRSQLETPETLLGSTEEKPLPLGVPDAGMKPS
Method: as §1

[5] = biological target: T2, His-tagged recombinant human TNFR1; test: ELISA on recombinant hTNFR1-His
[6] = biological target: T3, His-tagged recombinant human TNFR2; test: ELISA on recombinant hTNFR2-His (FIG. 14A)
[7] = biological target: T4, human TNFR2 expressed on cells …; test: flow cytometry on CHO cells expressing human TNFR2 (FIG. 12A)

B1: HFB3-18-hG1 (mouse monoclonal antibody) (antibody, human IgG1, kappa, V domains shown)
VH: EVKLEESGGGLVQPGGSMKLSCAASGFTFSDAWMDWVRQSPEKGLEWVAEVRNKANNHATYYAESVKGRFTISRDDSKSSVYLQMNSLRAEDTGIYYCTRSVGGYGTTYWYFDVWGTGTTVTVSS
VL: DIVMTQSPSSLSVSAGEKVTMSCKSSQNLLNSGNQKNYLAWYQQKPGQPPKLLIFGASTRESGVPDRFTGSGSGTDFTLTISSVQAEDLAVYYCQSEHSYPYTFGGGTKLEIKR
notes: also called human-mouse chimeric monoclonal antibody HFB3-18
binding result [1]: binds
binding result [2]: no binding (tested: highest concentration about 66 nM)
binding result [3]: binds
binding result [4]: binds

B2: HFB3-18hz1-hG1 (humanized monoclonal antibody) (antibody, V domains shown)
VH: EVQLVESGGGLVQPGGSLKLSCAASGFTFSDAWMDWVRQASGKGLEWVGEVRNKANNHATYYAASVKGRFTISRDDSKNTAYLQMNSLKTEDTAVYYCTRSVGGYGTTYWYFDVWGQGTTVTVSS
VL: DIVMTQSPDSLAVSLGERATINCKSSQNLLNSGNQKNYLAWYQQKPGQPPKLLIFGASTRESGVPDRFSGSGSGTDFTLTISSLQAEDVAVYYCQSEHSYPYTFGQGTKLEIKR
binding result [5]: no binding
binding result [6]: binds
binding result [7]: binds

B3: HFB3-14hz1c-hG1 (humanized monoclonal antibody) (antibody, V domains shown)
VH: QVQLVQSGAEVKKPGSSVKVSCKASGYTFTDYYMNWVRQAPGQGLEWMGDINPNDGGTTYAQKFQGRVTITADESTSTAYMELSSLRSEDTAVYFCAREGNYYAYDVRVWYFDVWGQGTTVTVSS
VL: DIQMTQSPSSLSASVGDRVTITCGASQDIITYLNWYQQKPGKAVKLLIYSTSSLNSGVPSRFSGSGSGTDFTLTISSLQPEDFATYYCQQYSELPYTFGGGTKVELKR
notes: also called HFB3-141c-hG1
binding result [5]: no binding

B4: HFB3-1-hG1 (mouse monoclonal antibody) (antibody, human IgG1, kappa, V domains shown)
VH: EFQLQQSGPELVKPGASVKISCKASSYSFTDYNMNWVKQSNGKSLEWIGIIFPKYGTTSYNQKFKGKATLTVDQSSSTAYMQLNSLTSEDSAVYYCATDGGTWYFDVWGTGTTVTVSS
VL: QIVLTQSPALMSASPGEKVTMTCSASSSVTYMYWYQQKPRSSPKPWIYLTSNLASGVPARFSGSGSGTSYSLTISSMEAEDAATYYCQQWSSNPPTFGSGTKLEIKR
notes: also called human-mouse chimeric monoclonal antibody HFB3-1; parental HFB3-1-hG1
binding result [2]: no binding (tested: highest concentration about 66 nM)
binding result [3]: binds
binding result [4]: binds

B5: HFB3-1hz6-hG1 (humanized monoclonal antibody) (antibody, V domains shown)
VH: QVQLVQSGAELKKPGASVKVSCKASSYSFTDYNMNWVRQAPGQSLEWMGIIFPKYGTTSYAQKLQGRVTLTTDTSTSTAYMELRSLRSDDTAVYYCATDGGTWYFDVWGTGTTVTVSS
VL: DIQLTQSPSFLSASVGDRVTITCRASSSVTYMYWYQQKPGKAPKPWIYLTSNLASGVPSRFSGSGSGTEYTLTISSLQPEDAATYYCQQWSSNPPTFGSGTKLEIKR
binding result [5]: no binding
binding result [6]: binds
binding result [7]: binds
